Consider five substances from US20230234991A1, “SELF-ASSEMBLED PEPTIDE NANORODS AND USES THEREOF” (TRANSFERT PLUS, SOCIÉTÉ EN COMMANDITE, priority 2020, published 2023).

Where “and” joins values, the source holds several entries; their conditions need not be identical. Equal entries are not always repeated. Entries after “also recorded” stand apart in the source; their conditions may differ.

Series [1] in a line: Atomic force microscopy of the assemblies. Type of series: physicochemical.
A short description of series [2]: Zeta potential. Type of series: physicochemical.
Series [3] can be described thus: Negative-stain transmission electron microscopy of the assemblies. It counts as physicochemical.
In series [4] the target is T1, TLR2 (Mus musculus, UniProt Q9QUN7).
T1 construct: host or cells: HEK293 (HEK-Blue mTLR2)
The series is described as follows: TLR-2 stimulation, SEAP activity in HEK-Blue mTLR2 cells. Type of series: cell-based. As to conditions: HEK-Blue mTLR2 cells, 16 h. On the procedure:
TLR-2 stimulation. HEK293 cells stably co-transfected with mTLR2 and SEAP (HEK-Blue mTLR2 cells, InvivoGen) were cultivated in Dulbecco's Modified Eagle's Medium supplemented with 4.5 g/I glucose, 10% (v/v) fetal bovine serum, 100 U/ml penicillin, […], […], 2 mM L-glutamine. At 50-80% confluency, cells were seeded in Hek-Blue detection medium (InvivoGen) at a density of 50,000 cells/well in a 96-well plate containing NRs and controls. After 16 h incubation at 37° C. in 5% CO2, absorbance was monitored at 630 nm.

Series [5] deals with INS-1E cells. It counts as cell-based, Rat. As to conditions: 24 h, 50×10^−6 m.
The test system of series [6] is dendritic-like cells (DC2.4).
In series [7] the test system is macrophage cells (J774A.1).
Series [8] has as its system HEK293T cells.
Series [9] can be described thus: Thermal denaturation monitored by CD spectroscopy. Type of series: physicochemical. The conditions noted are these: CD at 222, 212 and 205 nm.

T1 sequence (Q9QUN7 25-784): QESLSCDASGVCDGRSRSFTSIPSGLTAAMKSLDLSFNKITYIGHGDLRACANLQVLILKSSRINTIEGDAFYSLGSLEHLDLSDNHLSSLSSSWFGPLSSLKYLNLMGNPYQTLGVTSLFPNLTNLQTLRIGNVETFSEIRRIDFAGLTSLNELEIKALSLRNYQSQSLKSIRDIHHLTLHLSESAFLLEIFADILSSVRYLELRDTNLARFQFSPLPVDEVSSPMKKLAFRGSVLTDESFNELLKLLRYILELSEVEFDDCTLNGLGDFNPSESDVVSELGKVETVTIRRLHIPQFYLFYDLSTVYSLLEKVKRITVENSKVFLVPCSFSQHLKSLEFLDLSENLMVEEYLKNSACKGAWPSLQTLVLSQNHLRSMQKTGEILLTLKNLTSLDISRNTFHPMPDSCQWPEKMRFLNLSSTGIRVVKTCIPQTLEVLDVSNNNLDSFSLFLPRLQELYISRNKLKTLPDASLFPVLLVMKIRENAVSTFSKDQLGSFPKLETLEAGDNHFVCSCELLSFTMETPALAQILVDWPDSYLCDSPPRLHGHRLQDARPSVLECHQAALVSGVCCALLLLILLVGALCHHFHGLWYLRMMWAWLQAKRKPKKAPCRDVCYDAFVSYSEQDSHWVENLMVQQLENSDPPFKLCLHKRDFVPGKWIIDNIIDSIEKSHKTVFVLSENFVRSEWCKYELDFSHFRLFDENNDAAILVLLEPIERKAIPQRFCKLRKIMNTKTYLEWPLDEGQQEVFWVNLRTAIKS

With Ac-KGSGSSNNFGAILSS-NH2 [Ac-KI10], the Heigth in series [1] was 7.0 nm and 7.0 ± 0.7 nm. Moreover, the Surface charge in series [2] is on record as 49 ± 5 mV. The Morphology result in [3] (pH 7.4) was “rope-like fibrils; also recorded: thick rope-like”.
HGSGSSNNFGAILSS [HI10]: the “Morphology of variants of the KI10 sequence” value in [1] was “do not adopt a short-like rod confirmation”.
As for Pam2CSK4, the SEAP activity entry in series [4] was “SEAP activity was measured”.
As for RGSGSSNNFGAILSS [RI10], the “Morphology of variants of the KI10 sequence” value in [1] is reported as “do not adopt a short-like rod confirmation”.
Consider “islet amyloid polypeptide (KCNTATCATQRLANFLVHSSNNFGAILSSTNVGSNTY; Islet amyloid polypeptide; UniProt P10997 34-70, looked up) [IAPP, amyloidogenic peptide used as classical amyloid and positive control of cytotoxicity]”, for which the Morphology entry in series [3] (Tris 50×10^−3 M pH 7.4, rotary agitation 48 h, 150×10^−6 M (KKI10 500×10^−6 M)) is “polymorphic twisted ribbons and fibrils”. For the same substance, the “calcein-AM/ethidium homodimer-1 staining” value in series [5] is “increase of ethidium homodimer-1 and a decrease of calcein-AM staining”; in series [8], “increase of ethidium homodimer-1 and a decrease of calcein-AM staining”. Further, the Cytotoxicity entry in series [6] and in [7] was “high decrease of viability” throughout. The Thermal denaturation entry in series [9] is “no melt observed”.
